The record followed here is US20150197796, “SSB METHOD” (OXFORD NANOPORE TECHNOLOGIES LIMITED, published 2015).

For the data set, the target named is EcoSSB-Q152del (C-terminal truncated SSB) (Escherichia coli, UniProt P0AGE0 SEQ:1-152). As to the kind of experiment: EMSA; complex formation not impaired vs WT; 5% TBE gel. The following applies: tags: N-terminal His6-TEV site removed; chain copies: 4 inferred. (In general: A gel shift assay detects complexes by their altered migration in electrophoresis.)

B1: 70mer polyT (ssDNA)
DNA: TTTTTTTTTTTTTTTTTTTTTTTTTTTTTTTTTTTTTTTTTTTTTTTTTTTTTTTTTTTTTTTTTTTTTT
For the molecule B1, the binding result is on record as “binds”.
